Measured values published in US20240336673A1 (WEST VIRGINIA UNIVERSITY BOARD OF GOVERNERS ON BEHALF OF …, published 2024).

Key:
[1] = biological target: T1, FliC protein at the surface of P. aeruginosa PAO1 (Pseudomonas aeruginosa PAO1, UniProt P72151 1-488); test: direct ELISA of hybridoma supernatant on whole P. aeruginosa PAO1
T1 construct: whole, on cells; Native protein on whole bacteria or in lysates; also called P. aeruginosa PAO1 flagellin; type b flagellin
T1 sequence: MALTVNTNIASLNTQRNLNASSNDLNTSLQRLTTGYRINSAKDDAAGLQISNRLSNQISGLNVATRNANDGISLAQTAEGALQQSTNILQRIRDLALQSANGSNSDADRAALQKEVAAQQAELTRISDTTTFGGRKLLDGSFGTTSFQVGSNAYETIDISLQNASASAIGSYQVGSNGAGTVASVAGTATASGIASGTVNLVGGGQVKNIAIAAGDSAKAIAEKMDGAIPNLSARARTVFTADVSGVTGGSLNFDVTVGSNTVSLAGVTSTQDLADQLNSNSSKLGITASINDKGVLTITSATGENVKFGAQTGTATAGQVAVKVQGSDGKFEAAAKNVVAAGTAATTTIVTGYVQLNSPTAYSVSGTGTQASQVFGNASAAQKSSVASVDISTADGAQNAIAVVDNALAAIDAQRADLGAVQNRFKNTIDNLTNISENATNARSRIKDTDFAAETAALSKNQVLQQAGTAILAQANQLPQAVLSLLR

[2] = biological target: T2, purified recombinant FliC from P. aeruginosa (polyHis-tag FliC protein, gene from P. aeruginosa PAO1) (Pseudomonas aeruginosa PAO1, UniProt P72151 1-488); test: direct ELISA of hybridoma supernatant on coated recombinant FliC
T2 construct: also called P. aeruginosa flagellin; purified FliC protein from P. aeruginosa; not shown: polyhistidine tag
T2 sequence: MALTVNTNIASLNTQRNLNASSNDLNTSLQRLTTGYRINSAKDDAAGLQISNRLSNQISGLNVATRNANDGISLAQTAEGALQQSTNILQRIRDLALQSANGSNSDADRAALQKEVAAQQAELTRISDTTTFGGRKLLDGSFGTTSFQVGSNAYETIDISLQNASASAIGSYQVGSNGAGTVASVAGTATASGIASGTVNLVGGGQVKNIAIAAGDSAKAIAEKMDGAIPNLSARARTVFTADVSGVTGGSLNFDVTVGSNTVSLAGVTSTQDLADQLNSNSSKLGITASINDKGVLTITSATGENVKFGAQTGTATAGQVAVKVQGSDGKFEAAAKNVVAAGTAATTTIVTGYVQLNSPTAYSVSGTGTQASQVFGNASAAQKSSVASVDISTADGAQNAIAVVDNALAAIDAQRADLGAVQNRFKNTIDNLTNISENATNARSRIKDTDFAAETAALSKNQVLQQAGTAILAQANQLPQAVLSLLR

B1: WVDC-2109 (antibody, V domains shown)
VH: EVQLQESGAELVKPGASVKLSCKASGYTFTSYWMHWVKQRPGQGLEWIGMIRPNSGSTNYNEKFKSKATLTVDKSSSTAYMQLSSPTSEDSAVYYCARRGYGSSYGYYAMDYWGQGTSVTVSS
VL: DIVVTQTTSSLSASLGDRVTISCRASQDISNYLNWYQQKPDGTVKLLINYTSRLNSGVPSRFSGSGSGTDYSLTISNLEQEDIATYFCQQGNTLPWTFGGGTKLE
notes: also called anti-FliC mAb; mAb WVDC-2109
- binding result [1]: binds
- binding result [2]: binds
